# Results taken from patent US10428140B2, “Anti-EphA4 antibody” (EISAI R&D MANAGEMENT CO., LTD., priority 2015, dated 2019).
# T1: human EphA7 (Homo sapiens, UniProt Q15375)
# T1 construct: a protein of the extracellular region of each human Eph receptor fused with the SEAP protein and the His tag; made in house; host or cells: Expi293F cells (culture supernatant)
# T1 sequence (Q15375 28-555 limits assumed): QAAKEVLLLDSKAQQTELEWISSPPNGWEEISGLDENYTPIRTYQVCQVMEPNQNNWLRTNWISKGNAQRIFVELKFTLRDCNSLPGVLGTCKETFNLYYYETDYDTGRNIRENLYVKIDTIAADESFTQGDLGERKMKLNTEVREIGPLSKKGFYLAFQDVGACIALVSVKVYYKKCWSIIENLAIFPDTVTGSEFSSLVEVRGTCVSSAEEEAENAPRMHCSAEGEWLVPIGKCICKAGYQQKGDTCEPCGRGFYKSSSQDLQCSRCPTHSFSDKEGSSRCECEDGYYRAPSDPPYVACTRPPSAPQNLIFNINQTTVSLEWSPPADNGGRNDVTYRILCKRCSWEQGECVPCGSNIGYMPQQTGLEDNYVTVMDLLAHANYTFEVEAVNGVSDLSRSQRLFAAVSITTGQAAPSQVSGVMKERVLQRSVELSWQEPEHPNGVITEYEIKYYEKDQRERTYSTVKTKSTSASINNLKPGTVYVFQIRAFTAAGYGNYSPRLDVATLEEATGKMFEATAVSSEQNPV
# T2: human EphB1 (Homo sapiens, UniProt P54762)
# T2 construct: a protein of the extracellular region of each human Eph receptor fused with the SEAP protein and the His tag; made in house; host or cells: Expi293F cells (culture supernatant)
# T2 sequence (P54762 18-540 limits assumed): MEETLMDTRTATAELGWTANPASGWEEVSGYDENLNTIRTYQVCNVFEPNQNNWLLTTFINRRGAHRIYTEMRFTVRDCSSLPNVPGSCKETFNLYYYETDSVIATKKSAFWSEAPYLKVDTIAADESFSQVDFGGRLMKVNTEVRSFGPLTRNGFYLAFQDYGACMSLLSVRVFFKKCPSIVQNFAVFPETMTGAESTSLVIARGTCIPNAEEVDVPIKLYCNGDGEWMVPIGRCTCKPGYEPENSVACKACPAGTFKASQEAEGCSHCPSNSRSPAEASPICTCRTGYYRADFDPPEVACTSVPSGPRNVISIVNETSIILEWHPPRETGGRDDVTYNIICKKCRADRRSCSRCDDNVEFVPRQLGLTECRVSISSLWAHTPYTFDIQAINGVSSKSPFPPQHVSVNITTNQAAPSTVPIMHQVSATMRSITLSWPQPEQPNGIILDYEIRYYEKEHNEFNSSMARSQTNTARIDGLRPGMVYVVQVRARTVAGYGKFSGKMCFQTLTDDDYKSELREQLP
# T3: human EphB2 (Homo sapiens, UniProt P29323)
# T3 construct: a protein of the extracellular region of each human Eph receptor fused with the SEAP protein and the His tag; made in house; host or cells: Expi293F cells
# T3 sequence (P29323 19-543 limits assumed): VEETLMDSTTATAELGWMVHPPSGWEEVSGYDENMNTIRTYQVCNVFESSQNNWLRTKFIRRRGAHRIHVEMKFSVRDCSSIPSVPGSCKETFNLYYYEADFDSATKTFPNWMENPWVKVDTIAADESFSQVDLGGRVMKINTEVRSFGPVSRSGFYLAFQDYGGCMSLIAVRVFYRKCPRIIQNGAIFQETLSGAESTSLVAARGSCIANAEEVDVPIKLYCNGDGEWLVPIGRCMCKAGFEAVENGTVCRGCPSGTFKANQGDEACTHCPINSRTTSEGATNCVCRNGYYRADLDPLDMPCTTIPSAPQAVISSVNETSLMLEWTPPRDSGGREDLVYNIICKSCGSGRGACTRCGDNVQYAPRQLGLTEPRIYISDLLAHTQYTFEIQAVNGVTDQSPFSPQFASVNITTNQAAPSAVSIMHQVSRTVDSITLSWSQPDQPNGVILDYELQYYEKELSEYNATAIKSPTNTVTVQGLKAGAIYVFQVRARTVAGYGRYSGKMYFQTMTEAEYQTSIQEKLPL
# How the values were obtained:
# Assay in all cases: Selectivity ELISA of humanized antibodies for human Eph receptor
# Assay type in all cases: binding
# Settings in all cases: coated protein 1 nM
# human EphA7 = target: T1, human EphA7
# In short: (§1)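 Capture ELISA: anti-6-His coat, 1% BlockAce block, Eph ECD-SEAP-His (1 nM final, Expi293F supernatant) 1 h RT, humanized Ab 1 h RT, HRP anti-IgG 1 h RT, TMB, H2SO4 stop, A450.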
# human EphB1 = target: T2, human EphB1
# In short: as §1
# human EphB2 = target: T3, human EphB2
# In short: as §1
# human EphA5 = target: T4, human EphA5 (Homo sapiens, UniProt P54756)
# T4 construct: a protein of the extracellular region of each human Eph receptor fused with the SEAP protein and the His tag; made in house; host or cells: Expi293F cells (culture supernatant)
# In short: as §1
# T4 sequence (P54756 25-573 limits assumed): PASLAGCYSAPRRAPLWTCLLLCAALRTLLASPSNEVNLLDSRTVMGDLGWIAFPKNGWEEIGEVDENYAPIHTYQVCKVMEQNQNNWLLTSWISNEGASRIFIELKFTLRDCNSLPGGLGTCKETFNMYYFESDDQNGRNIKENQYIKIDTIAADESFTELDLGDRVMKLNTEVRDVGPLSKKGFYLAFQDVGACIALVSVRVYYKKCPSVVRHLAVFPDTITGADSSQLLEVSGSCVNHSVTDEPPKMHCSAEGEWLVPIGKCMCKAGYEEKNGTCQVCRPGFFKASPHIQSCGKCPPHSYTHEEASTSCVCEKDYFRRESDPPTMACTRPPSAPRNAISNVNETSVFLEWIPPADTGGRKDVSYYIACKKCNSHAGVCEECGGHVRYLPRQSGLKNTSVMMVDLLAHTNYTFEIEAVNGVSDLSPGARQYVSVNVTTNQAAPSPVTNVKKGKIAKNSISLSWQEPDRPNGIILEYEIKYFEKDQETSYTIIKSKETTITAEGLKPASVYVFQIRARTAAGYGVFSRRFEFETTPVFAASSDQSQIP
Molecule,"hEphA7-SEAP-: absorbance at 450 nm, percentage with respect to hEphA4-SEAP-His as 100% (human EphA7)","hEphB1-SEAP-: absorbance at 450 nm, percentage with respect to hEphA4-SEAP-His as 100% (human EphB1)","hEphB2-SEAP-: absorbance at 450 nm, percentage with respect to hEphA4-SEAP-His as 100% (human EphB2)","hEphA5-SEAP-: absorbance at 450 nm, percentage with respect to hEphA4-SEAP-His as 100% (human EphA5)"
"95 (antibody, V domains shown, constant regions without entry; synthetic humanized antibody light chain variable region sequence; synthetic humanized antibody heavy chain variable region sequence) VL: EIVMTQSPATLSVSPGERATLSCRASENIYRNLAWYQQKPGQSPRLLIYAATNLADGIPARFSGSGSGTEYTLTISSLQSEDFAVYYCQHFWGTPWTFGQGTKVEIK VH: QVQLVQSGSELKKPGASVKVSCKASGYTFTDYSMHWVRQAPGQGLEWMGWINTETGEPTYADDFKGRFVFSLDTSVSTAYLQISSLKAEDTAVYYCARIPLYYYGSRYWYFDVWGQGTTVTVSS",4.4%,4.6%,4.7%,4.6%
"96 (antibody, V domains shown, constant regions without entry; synthetic humanized antibody light chain variable region sequence; synthetic humanized antibody heavy chain variable region sequence) VL: EIVMTQSPATLSVSPGERATLSCRASENIYRNLAWYQQKPGQSPRLLIYAATNLADGIPARFSGSGSGTEYTLTISSLQSEDFAVYYCQHFWGTPWTFGQGTKVEIK VH: QVQLVQSGSELKKPGASVKVSCKASGYTFTDYSMHWVRQAPGQGLKWMGWINTETGEPTYADDFKGRFVFSLDTSVSTAYLQISSLKAEDTAVYYCARIPLYYYGSRYWYFDVWGQGTTVTVSS",5.3%,5.6%,5.5%,6.0%
"73 (antibody, V domains shown, synthetic humanized antibody heavy chain variable region sequence; synthetic humanized antibody light chain variable region sequence) VH: QIQLVQSGSELKKPGASVKVSCKASGYTFTDYSMHWVRQAPGQGLKWMGWINTETGEPTYADDFKGRFVFSLDTSVSTAYLQISSLKAEDTAVYYCARIPLYYYGSRYWYFDVWGQGTTVTVSS VL: EIVMTQSPATLSVSPGERATLSCRASENIYRNLAWYQQKPGQSPRLLIYAATNLADGIPARFSGSGSGTEYTLTISSLQSEDFAVYYCQHFWGTPWTFGQGTKVEIK",5.6%,5.7%,5.6%,6.0%

# Results, then the molecule that gave them:
"hEphA7-SEAP-: absorbance at 450 nm, percentage with respect to hEphA4-SEAP-His as 100% (human EphA7)","hEphB1-SEAP-: absorbance at 450 nm, percentage with respect to hEphA4-SEAP-His as 100% (human EphB1)","hEphB2-SEAP-: absorbance at 450 nm, percentage with respect to hEphA4-SEAP-His as 100% (human EphB2)","hEphA5-SEAP-: absorbance at 450 nm, percentage with respect to hEphA4-SEAP-His as 100% (human EphA5)",Molecule
5.5%,5.5%,5.7%,5.7%,"139 (antibody, synthetic humanized antibody heavy chain variable region sequence; synthetic humanized antibody light chain variable region sequence; synthetic antibody constant region sequence) VH: QVQLVQSGSELKKPGASVKVSCKASGYTFTDYSMHWVRQAPGQGLEWMGWINTETGEPTYAQGFTGRFVFSLDTSVSTAYLQISSLKAEDTAVYYCARIPLYYYGSRYWYFDVWGQGTTVTVSS VL: DIQMTQSPSSLSASVGDRVTITCRASENIYRNLAWYQQKPGKAPKLLVYAATNLADGVPSRFSGSGSGTDYTLTISSLQPEDFATYYCQHFWGTPWTFGQGTKVEIK ASTKGPSVFPLAPSSRSTSESTAALGCLVKDYFPEPVTVSWNSGALTSGVHTFPAVLQSSGLYSLSSVVTVPSSNFGTQTYTCNVDHKPSNTKVDKTVERKSCVECPPCPAPPAAAPSVFLFPPKPKDTLMISRTPEVTCVVVDVSHEDPEVQFNWYVDGVEVHNAKTKPREEQFNSTFRVVSVLTVVHQDWLNGKEYKCKVSNKGLPAPIEKTISKTKGQPREPQVYTLPPSREEMTKNQVSLTCLVKGFYPSDIAVEWESNGQPENNYKTTPPMLDSDGSFFLYSKLTVDKSRWQQGNVFSCSVMHEALHNHYTQKSLSLSPG"
5.2%,5.3%,5.3%,5.4%,"140 (antibody, V domains shown, synthetic humanized antibody heavy chain variable region sequence; synthetic humanized antibody light chain variable region sequence) VH: QVQLVQSGSELKKPGASVKVSCKASGYTFTDYSMHWVRQAPGQGLKWMGWINTETGEPTYAQGFTGRFVFSLDTSVSTAYLQISSLKAEDTAVYYCARIPLYYYGSRYWYFDVWGQGTTVTVSS VL: DIQMTQSPSSLSASVGDRVTITCRASENIYRNLAWYQQKPGKAPKLLVYAATNLADGVPSRFSGSGSGTDYTLTISSLQPEDFATYYCQHFWGTPWTFGQGTKVEIK"
4.9%,5.1%,5.2%,5.1%,"138 (antibody, V domains shown, synthetic humanized antibody heavy chain variable region sequence; synthetic humanized antibody light chain variable region sequence) VH: QIQLVQSGSELKKPGASVKVSCKASGYTFTDYSMHWVRQAPGQGLKWMGWINTETGEPTYAQGFTGRFVFSLDTSVSTAYLQISSLKAEDTAVYYCARIPLYYYGSRYWYFDVWGQGTTVTVSS VL: DIQMTQSPSSLSASVGDRVTITCRASENIYRNLAWYQQKPGKAPKLLVYAATNLADGVPSRFSGSGSGTDYTLTISSLQPEDFATYYCQHFWGTPWTFGQGTKVEIK"
5.3%,5.4%,5.2%,5.3%,"141 (antibody, V domains shown, synthetic humanized antibody heavy chain variable region sequence; synthetic humanized antibody light chain variable region sequence) VH: QVQLVQSGSELKKPGASVKVSCKASGYTFTDYSMHWVRQAPGQGLEWMGWINTETGEPTYADDFKGRFVFSLDTSVSTAYLQISSLKAEDTAVYYCARIPLYYYGSRYWYFDVWGQGTTVTVSS VL: DIQMTQSPSSLSASVGDRVTITCRASENIYRNLAWYQQKPGKAPKLLVYAATNLADGVPSRFSGSGSGTDYTLTISSLQPEDFATYYCQHFWGTPWTFGQGTKVEIK"
